# Measured values reported in article doi:10.1101/2025.07.21.665964.
# Target: Avi-GST-CMG2^ABD
# Assay: BLI
substance,measurement,value
purified actin (polymerized F-actin) (from UniProt P60709 1-375) (natural protein),Kd,10 nM
